Consider 1 substance from patent publication US20030216297A1, “Pharmaceutical composition” (SANKYO COMPANY, LIMITED, priority 2002, published 2003).

The data set can be described thus: Serum concentration of OCIF after intravenous injection in rats. In kind it is in vivo. Particulars: Wistar female rat, single i.v. dose 0.5 mg OCIF/kg, 6 hours after administration. The protocol:
Five-week old Wistar female rat (having a body weight of about 100 g) were made to abstain from food overnight. The preparation of OCIF and dextran sulfate prepared in either Preparation Example 1, Preparation Example 2 or Reference Example 1 which was to be tested was diluted to a concentration of 0.25 mg/ml with PBS (pH 7.4) containing 0.01% Polysorbate 80 to prepare an injectable solution, which was then administered to the tail of one of the test rats via a vein in a single dose at an injected level of 2 ml/kg body weight. 6 hours after administration, blood was taken from the heart of the rat. […]
After stirring gently using a shaking machine (Micro plate mixer NS-P: manufactured by Iuchi Seiei-Do Co Ltd.), the absorbance of each well at a wavelength of 450 nm was measured using a micro plate reader (SPECTRA THERMO: manufactured by TECAN). The OCIF concentration in the tested serum was then calculated from a calibration curve created using the standard OCIF solution. The dose was calculated as the dose of OCIF per kg body weight (mg/kg) by measuring the concentration of OCIF in each injection prepared in 1(a) in a similar manner to the case of the serum.
The OCIF in the serum obtained in 1(b) above was quantified for each sample according to the method described in 1(c) above.

Turning to “Prep. 4: OCIF/DS5 complex: DS5 130 mg/ml, OCIF 6.5 mg/ml, 4 °C, pH 10.5, 72 h”, the “Serum concentration (OCIF)” value was 370 ng/mL.
